In patent US20240132578A1:

Legend:
Assay in all cases: cell-based or functional assay
[1] = target: HIV-1 92RW020 envelope glycoprotein (Env), clade A pseudovirus (HIV-1)
[2] = target: HIV-1 94UG103 envelope glycoprotein (Env), clade A pseudovirus (HIV-1)
[3] = target: HIV-1 JRCSF envelope glycoprotein (Env), clade B pseudovirus (HIV-1)
[4] = target: HIV-1 MGRM-C-027 envelope glycoprotein (Env), clade C pseudovirus (HIV-1)
[5] = target: HIV-1 Env of isolate 92UG024 (clade D) (HIV-1)
[6] = target: HIV-1 Env of isolate APV6 (clade B) (HIV-1)
[7] = target: HIV-1 Env of isolate MGRM-C-026 (clade C) (HIV-1)
[8] = target: HIV-1 Env of isolate NL43 (clade B) (HIV-1)
[9] = target: HIV-1 92BR020 envelope glycoprotein (Env) (HIV-1)
[10] = target: HIV-1 92UG005 envelope glycoprotein (Env) (HIV-1)
[11] = target: HIV-1 93IN905 envelope glycoprotein (Env) (HIV-1)
[12] = target: HIV-1 NL43 envelope glycoprotein (Env) (HIV-1)
[13] = target: HIV-1 94UG103 Env (HIV-1 isolate 94UG103 (clade A))
[14] = target: HIV-1 MGRM-D-001 Env (HIV-1 isolate MGRM-D-001 (clade D))
[15] = target: HIV-1 envelope glycoprotein (Env) of isolate 92BR020 (HIV-1)
[16] = target: HIV-1 envelope glycoprotein (Env) of isolate 92RW020 (HIV-1)
[17] = target: HIV-1 envelope glycoprotein (Env) of isolate 92UG005 (HIV-1)
[18] = target: HIV-1 envelope glycoprotein (Env) of isolate CMU02 (HIV-1)
[19] = target: HIV-1 envelope glycoprotein (Env) of isolate MGRM-C-027 (HIV-1)
[20] = target: HIV-1 envelope glycoprotein (Env) of isolate NL43 (HIV-1)
[21] = target: HIV-1 92UG005 envelope glycoprotein (Env) on virus (HIV-1, clade D, isolate 92UG005)
[22] = target: HIV-1 Env of isolate MG RM-C-020 (HIV-1)
[23] = target: HIV-1 Env of isolate MG RM-D-029 (subtype D) (HIV-1)
[24] = target: HIV-1 Env of isolate MGRM-Chronic-B-001 (subtype B), on pseudovirus (HIV-1)
[25] = target: HIV-1 Env of isolate MGRM-F1-014 (subtype F) (HIV-1)
[26] = target: HIV-1 Env of isolate MGRM-F1-015 (subtype F) (HIV-1)
[27] = target: HIV-1 envelope glycoprotein (Env) of isolate 92UG037 (HIV-1)
[28] = target: HIV-1 envelope glycoprotein (Env) of isolate MG RM-A-002 (HIV-1)
[29] = target: HIV-1 Env of pseudovirus Du172 (HIV-1)
[30] = target: HIV-1 Env of pseudovirus ZM249 (HIV-1)
[31] = target: HIV-1 JR-CSF Env N339A (HIV-1 isolate JR-CSF) (UniProt P20871)
[32] = target: HIV-1 92BR020 Env (pseudovirus) (HIV-1)
[33] = target: HIV-1 NL43 Env (pseudovirus) (HIV-1)

Sequence of 5329_C19 (PGT-136) (antibody) (VH): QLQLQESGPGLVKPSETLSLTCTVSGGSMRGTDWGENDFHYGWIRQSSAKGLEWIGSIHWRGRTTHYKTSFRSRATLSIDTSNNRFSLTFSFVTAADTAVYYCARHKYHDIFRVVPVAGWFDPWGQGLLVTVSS
Sequence of 5329_C19 (PGT-136) (antibody) (VL): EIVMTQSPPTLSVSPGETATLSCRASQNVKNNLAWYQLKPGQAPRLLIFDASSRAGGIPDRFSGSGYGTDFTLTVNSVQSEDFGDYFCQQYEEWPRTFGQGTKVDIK
Sequence of 1443_C16 (PG16) (TCN-116) (antibody) (VH): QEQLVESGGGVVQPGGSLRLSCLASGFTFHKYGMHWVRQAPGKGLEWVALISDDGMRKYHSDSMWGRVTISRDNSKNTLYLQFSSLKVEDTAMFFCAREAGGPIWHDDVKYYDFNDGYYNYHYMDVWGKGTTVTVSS
Sequence of 1443_C16 (PG16) (TCN-116) (antibody) (VL): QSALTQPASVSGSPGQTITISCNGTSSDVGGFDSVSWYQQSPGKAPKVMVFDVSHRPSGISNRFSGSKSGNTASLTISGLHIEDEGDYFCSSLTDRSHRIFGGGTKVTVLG

Q: For 4858_P08 (PGT-123) (antibody), which IC50, pseudovirus neutralization [1] is on record?
A: 0.0038 µg/mL

Q: And the IC80 (pseudovirus neutralization) [1]?
A: 0.0106 µg/mL

Q: What about the IC90 (pseudovirus neutralization) [1] of the same substance?
A: 0.0194 µg/mL

Q: And the IC95 (pseudovirus neutralization) [1]?
A: 0.0343 µg/mL

Q: What about the IC50, pseudovirus neutralization [2] of the same substance?
A: 0.846 µg/mL

Q: What about the IC80 (pseudovirus neutralization) [2] of the same substance?
A: 3.29 µg/mL

Q: And the IC90 (pseudovirus neutralization) [2]?
A: 8.56 µg/mL

Q: And the IC95 (pseudovirus neutralization) [2]?
A: > 10 µg/mL

Q: What about the IC50, pseudovirus neutralization [3] of the same substance?
A: 0.0423 µg/mL

Q: What about the IC80 (pseudovirus neutralization) [3] of the same substance?
A: 0.143 µg/mL

Q: What about the IC90 (pseudovirus neutralization) [3] of the same substance?
A: 0.289 µg/mL

Q: And the IC95 (pseudovirus neutralization) [3]?
A: 0.547 µg/mL

Q: What about the IC50, pseudovirus neutralization [4] of the same substance?
A: 0.0169 µg/mL

Q: What about the IC80 (pseudovirus neutralization) [4] of the same substance?
A: 0.149 µg/mL

Q: What about the IC90 (pseudovirus neutralization) [4] of the same substance?
A: > 10 µg/mL

Q: What about the IC95 (pseudovirus neutralization) [4] of the same substance?
A: > 10 µg/mL

Q: With 1496_C09 (PG9) (TCN-109) (antibody) as the substance, how does the neutralization IC50 [5] read?
A: 1.91 µg/mL

Q: What about the Neutralization IC80 [6] of the same substance?
A: 1.13 µg/mL

Q: What about the Neutralization IC90 [6] of the same substance?
A: 3.21 µg/mL

Q: And the Neutralization IC95 [6]?
A: 9.65 µg/mL

Q: What about the neutralization IC50 [6] of the same substance?
A: 0.214 µg/mL

Q: And the neutralization IC50 [7]?
A: 0.113 µg/mL

Q: What about the neutralization IC50 [8] of the same substance?
A: 0.687 µg/mL

Q: With 5329_C19 (PGT-136) (antibody) as the substance, how does the Neutralization IC80 [9] read?
A: > 10 µg/mL

Q: And the Neutralization IC90 [9]?
A: > 10 µg/mL

Q: What about the Neutralization IC95 [9] of the same substance?
A: > 10 µg/mL

Q: And the neutralization IC50 [9]?
A: > 10 µg/mL

Q: And the Neutralization IC80 [10]?
A: > 10 µg/mL

Q: What about the Neutralization IC90 [10] of the same substance?
A: > 10 µg/mL

Q: And the Neutralization IC95 [10]?
A: > 10 µg/mL

Q: What about the neutralization IC50 [10] of the same substance?
A: > 10 µg/mL

Q: And the Neutralization IC80 [11]?
A: 0.0623 µg/mL

Q: What about the Neutralization IC90 [11] of the same substance?
A: 0.156 µg/mL

Q: What about the Neutralization IC95 [11] of the same substance?
A: 0.379 µg/mL

Q: What about the neutralization IC50 [11] of the same substance?
A: 0.0135 µg/mL

Q: And the Neutralization IC80 [12]?
A: > 10 µg/mL

Q: What about the Neutralization IC90 [12] of the same substance?
A: > 10 µg/mL

Q: What about the Neutralization IC95 [12] of the same substance?
A: > 10 µg/mL

Q: What about the neutralization IC50 [12] of the same substance?
A: > 10 µg/mL

Q: For 4838_L06 (PGT-121) (antibody), which Neutralization IC80 [13] is on record?
A: 8.85 µg/mL

Q: And the Neutralization IC80 [14]?
A: 3.29 µg/mL

Q: What about the Neutralization IC90 [14] of the same substance?
A: 6.26 µg/mL

Q: What about the Neutralization IC95 [14] of the same substance?
A: 9.39 µg/mL

Q: Which Neutralization IC80 [15] does the source give for 5141_B17 (PGT-126) (antibody) here?
A: 0.0457 µg/mL

Q: And the Neutralization IC90 [15]?
A: 0.0846 µg/mL

Q: And the Neutralization IC95 [15]?
A: 0.152 µg/mL

Q: And the neutralization IC50 [15]?
A: 0.0163 µg/mL

Q: And the Neutralization IC80 [16]?
A: 0.0168 µg/mL

Q: What about the Neutralization IC90 [16] of the same substance?
A: 0.0359 µg/mL

Q: What about the Neutralization IC95 [16] of the same substance?
A: 0.0728 µg/mL

Q: What about the neutralization IC50 [16] of the same substance?
A: 0.0046 µg/mL

Q: And the Neutralization IC80 [17]?
A: 0.145 µg/mL

Q: What about the Neutralization IC90 [17] of the same substance?
A: 0.553 µg/mL

Q: And the Neutralization IC95 [17]?
A: 2.45 µg/mL

Q: What about the neutralization IC50 [17] of the same substance?
A: 0.0181 µg/mL

Q: And the Neutralization IC80 [18]?
A: > 10 µg/mL

Q: And the Neutralization IC90 [18]?
A: > 10 µg/mL

Q: And the Neutralization IC95 [18]?
A: > 10 µg/mL

Q: And the neutralization IC50 [18]?
A: > 10 µg/mL

Q: What about the Neutralization IC80 [19] of the same substance?
A: > 10 µg/mL

Q: And the Neutralization IC90 [19]?
A: > 10 µg/mL

Q: And the Neutralization IC95 [19]?
A: > 10 µg/mL

Q: What about the neutralization IC50 [19] of the same substance?
A: 1.14 µg/mL

Q: And the Neutralization IC80 [20]?
A: > 10 µg/mL

Q: What about the Neutralization IC90 [20] of the same substance?
A: > 10 µg/mL

Q: And the Neutralization IC95 [20]?
A: > 10 µg/mL

Q: And the neutralization IC50 [20]?
A: > 10 µg/mL

Q: For 4877_D15 (PGT-122) (antibody), which Neutralization IC80 [21] is on record?
A: > 10 µg/mL

Q: And the Neutralization IC90 [21]?
A: > 10 µg/mL

Q: And the Neutralization IC95 [21]?
A: > 10 µg/mL

Q: What about the neutralization IC50 [21] of the same substance?
A: > 10 µg/mL

Q: What does the source list for PGV04 (antibody)?
A: IC50 (µg/mL), pseudovirus neutralization [22]: 0.112 µg/mL; IC50 (µg/mL), pseudovirus neutralization [23]: 1.56 µg/mL; IC50, single-round pseudovirus neutralization [24]: 0.048 µg/mL; IC50 (µg/mL), pseudovirus neutralization [25]: 0.02 µg/mL; IC50 (µg/mL), pseudovirus neutralization [26]: 0.179 µg/mL; IC50 [27]: 0.145 µg/mL; IC50 [28]: 0.093 µg/mL

Q: Which results are given for 1443_C16 (PG16) (TCN-116) (antibody)?
A: IC50, pseudovirus neutralization (TZM-bl assay) [29]: < 0.01 µg/mL; IC50, pseudovirus neutralization (TZM-bl assay) [30]: < 0.01 µg/mL

Q: For 5147_N06 (PGT-130) (antibody), which Fold IC50 increase relative to wild-type [31] is on record?
A: 0.2 fold

Q: For 5123_A06 (PGT-125) (antibody), which Neutralization by PGT-125, IC50 [32] is on record?
A: 0.0214 µg/mL

Q: And the Neutralization by PGT-125, IC80 [32]?
A: 0.0738 µg/mL

Q: What about the Neutralization by PGT-125, IC90 [32] of the same substance?
A: 0.156 µg/mL

Q: And the Neutralization by PGT-125, IC95 [32]?
A: 0.323 µg/mL

Q: What about the Neutralization by PGT-125, IC50 [33] of the same substance?
A: > 10 µg/mL

Q: What about the Neutralization by PGT-125, IC80 [33] of the same substance?
A: > 10 µg/mL

Q: And the Neutralization by PGT-125, IC90 [33]?
A: > 10 µg/mL

Q: What about the Neutralization by PGT-125, IC95 [33] of the same substance?
A: > 10 µg/mL
